To fix the notation:
B1: H2-Kb / B15 (parent complex)
chain 1: QQQVRQSPQSLTVWEGETAILNCSYENSAFDYFPWYQQFPGEGPALLISILSVSDKKEDGRFTIFFNKREKKLSLHIADSQPGDSATYFCAASAASNNRLTLGKGTQVVVLP
chain 2: DSGVVQSPRHIIKEKGGRSVLTCIPISGHSNVVWYQQTLGKELKFLIQHYEKVERDKGFLPSRFSVQQFDDYHSEMNMSALELEDSAMYFCASSRRADAEQFFGPGTRLTVL
chain 3: not shown
chain 4: IQKTPQIQVYSRHPPENGKPNILNCYVTQFHPPHIEIQMLKNGKKIPKVEMSDMSFSKDWSFYILAHTEFTPTETDTYACRVKHDSMAEPKTVYWDRDM
chain 5: SIINFEKL
B2: H2-Kb / Ed9 (parent complex)
chain 1: AQSVTQPDARVTVSEGASLQLRCKYSYFGTPYLFWYVQYPRQGLQLLLKYYPGDPVVQGVNGFEAEFSKSNSSFHLRKASVHWSDWAVYFCAVSITGGYKVVFGSGTRLLVSP
chain 2: DSGVVQSPRHIIKEKGGRSVLTCIPISGHSNVVWYQQTLGKELKFLIQHYEKVERDKGFLPSRFSVQQFDDYHSEMNMSALELEDSAMYFCASSPRQSDYTFGSGTRLLVI
chain 3: not shown
chain 4: B1 chain 4
chain 5: SIINFEKL
Further: test concentration or dose not given here.

The variants in one assay derive from B1. Briefly: % of reporter cells activated (NFAT-GFP), raw.
Take chain 5 F5R: the ratio to parent stood at 0.96.

With chain 5 F5H, the ratio to parent is 0.944.

chain 5 I2A: the ratio to parent was 0.958.

Consider chain 5 I2P, for which the ratio to parent came out at 0.772.

With chain 5 I2K, the ratio to parent is 0.859.

chain 5 N4C: the ratio to parent was found to be 0.0905.

Take chain 5 N4R: the ratio to parent was 0.382.

On to chain 5 N4P, for which the ratio to parent amounted to 0.00661.

For the variant chain 5 K7G, the ratio to parent was determined as 0.457.

As to chain 5 K7W, the ratio to parent stood at 0.836.

As for chain 5 K7Q, the ratio to parent is 0.212.

Turning to chain 5 K7L, the ratio to parent is 0.159.

For chain 5 K7F, the ratio to parent came out at 0.0871.

Take chain 5 S1A: the ratio to parent came out at 0.847.

As for chain 5 S1E, the ratio to parent was 0.759.

Turning to chain 5 I3E, the ratio to parent was 0.599.

With chain 5 I3G, the ratio to parent came to 0.362.

As for chain 5 I3R, the ratio to parent is 0.339.

As to chain 5 I3V, the ratio to parent was found to be 0.798.

With chain 5 E6W, the ratio to parent was determined as 0.0482.

Take chain 5 E6C: the ratio to parent is 0.47.

With chain 5 E6K, the ratio to parent turned out to be 0.623.

On to chain 5 E6P, for which the ratio to parent amounted to 0.328.

Take chain 5 E6R: the ratio to parent was 0.221.

Turning to chain 5 E6T, the ratio to parent turned out to be 0.132.

For chain 5 E6Q, the ratio to parent worked out at 0.41.

In the case of chain 5 E6M, the ratio to parent is 0.324.

For chain 5 L8T, the ratio to parent amounted to 0.977.

Regarding chain 5 L8W, the ratio to parent was 0.805.

In the case of chain 5 L8Y, the ratio to parent was determined as 0.793.

In another assay the parent is B2. Briefly: % of reporter cells activated (NFAT-GFP), raw.
Consider chain 5 K7F, for which the ratio to parent was 0.296.

Regarding chain 5 K7P, the ratio to parent was 0.525.

chain 5 K7W: the ratio to parent was 0.781.

In the case of chain 5 K7Y, the ratio to parent came to 0.668.

With chain 5 K7H, the ratio to parent was 0.723.

For the variant chain 5 K7N, the ratio to parent came to 0.332.

Regarding chain 5 K7C, the ratio to parent is 0.432.

On to chain 5 K7G, for which the ratio to parent worked out at 0.473.

Consider chain 5 K7R, for which the ratio to parent was 0.982.

As for chain 5 K7I, the ratio to parent worked out at 0.919.

chain 5 K7S: the ratio to parent was determined as 0.969.

With chain 5 K7D, the ratio to parent came to 0.294.

chain 5 K7L: the ratio to parent came out at 0.719.

As for chain 5 K7Q, the ratio to parent was determined as 0.798.

chain 5 K7A: the ratio to parent turned out to be 0.47.

In the case of chain 5 K7V, the ratio to parent worked out at 0.845.

Consider chain 5 S1A, for which the ratio to parent was determined as 1.17.

For chain 5 S1Y, the ratio to parent came out at 0.802.

In the case of chain 5 S1N, the ratio to parent came out at 0.0383.

For chain 5 S1W, the ratio to parent was 0.126.

For chain 5 S1C, the ratio to parent worked out at 0.147.

For the variant chain 5 S1F, the ratio to parent came to 0.245.

As for chain 5 S1R, the ratio to parent was found to be 0.402.

Regarding chain 5 S1H, the ratio to parent was 0.543.

For the variant chain 5 S1G, the ratio to parent came out at 0.224.

With chain 5 S1M, the ratio to parent came out at 0.0181.

Consider chain 5 S1T, for which the ratio to parent worked out at 0.381.

chain 5 S1Q: the ratio to parent was 0.0362.

On to chain 5 S1L, for which the ratio to parent was 0.0324.

chain 5 S1K: the ratio to parent came to 0.424.

For the variant chain 5 S1E, the ratio to parent is 0.0209.

Regarding chain 5 I3N, the ratio to parent came to 0.336.

Turning to chain 5 I3V, the ratio to parent was 1.12.

As for chain 5 I3D, the ratio to parent is 0.484.

With chain 5 I3L, the ratio to parent stood at 1.03.

Regarding chain 5 I3R, the ratio to parent stood at 0.385.

In the case of chain 5 I3Q, the ratio to parent came out at 0.728.

Turning to chain 5 I3F, the ratio to parent is 0.0133.

Regarding chain 5 I3P, the ratio to parent worked out at 0.819.

Take chain 5 I3C: the ratio to parent was 0.633.

As to chain 5 I3S, the ratio to parent was 1.01.

As for chain 5 I3W, the ratio to parent stood at 0.753.

Turning to chain 5 I3K, the ratio to parent came out at 0.907.

Turning to chain 5 I3M, the ratio to parent was 0.914.

In the case of chain 5 I3T, the ratio to parent came to 0.43.

Take chain 5 I3H: the ratio to parent was 1.17.

For chain 5 I3G, the ratio to parent turned out to be 0.446.

For chain 5 I3E, the ratio to parent stood at 0.56.

With chain 5 I2Y, the ratio to parent stood at 0.858.

Regarding chain 5 I2R, the ratio to parent came out at 1.12.

For the variant chain 5 I2W, the ratio to parent is 0.799.

For chain 5 I2E, the ratio to parent is 1.11.

Take chain 5 I2H: the ratio to parent is 0.854.

In the case of chain 5 I2G, the ratio to parent turned out to be 1.06.

As to chain 5 I2K, the ratio to parent was 1.

In the case of chain 5 I2C, the ratio to parent was determined as 1.22.

Consider chain 5 I2L, for which the ratio to parent is 1.31.

Turning to chain 5 I2A, the ratio to parent came to 1.21.

Regarding chain 5 I2V, the ratio to parent was determined as 1.32.

Consider chain 5 I2T, for which the ratio to parent amounted to 1.22.

chain 5 I2P: the ratio to parent is 1.

chain 5 I2D: the ratio to parent was 1.21.

Regarding chain 5 I2M, the ratio to parent turned out to be 1.18.

Regarding chain 5 I2S, the ratio to parent was found to be 1.18.

Consider chain 5 I2N, for which the ratio to parent came out at 0.905.

Take chain 5 E6W: the ratio to parent was 0.0935.

Consider chain 5 E6F, for which the ratio to parent stood at 0.0676.

With chain 5 E6R, the ratio to parent was 0.329.

chain 5 E6C: the ratio to parent came to 0.0497.

With chain 5 E6Q, the ratio to parent stood at 0.646.

On to chain 5 E6L, for which the ratio to parent was found to be 0.0232.

As to chain 5 E6K, the ratio to parent came out at 0.795.

chain 5 E6D: the ratio to parent was 0.85.

As for chain 5 E6A, the ratio to parent came out at 0.437.

As for chain 5 E6S, the ratio to parent amounted to 0.469.

Consider chain 5 E6V, for which the ratio to parent amounted to 0.409.

For chain 5 E6H, the ratio to parent stood at 0.73.

On to chain 5 E6M, for which the ratio to parent is 0.725.

In the case of chain 5 E6T, the ratio to parent came to 0.702.

chain 5 E6P: the ratio to parent came to 0.155.

Take chain 5 E6N: the ratio to parent was found to be 0.203.

In the case of chain 5 E6G, the ratio to parent was 0.597.

With chain 5 E6I, the ratio to parent worked out at 0.449.

For the variant chain 5 L8R, the ratio to parent came to 1.13.

Consider chain 5 L8H, for which the ratio to parent turned out to be 1.16.

In the case of chain 5 L8V, the ratio to parent came out at 0.958.

Turning to chain 5 L8P, the ratio to parent was found to be 0.817.

With chain 5 L8Q, the ratio to parent came out at 1.18.

Turning to chain 5 L8C, the ratio to parent turned out to be 0.957.

chain 5 L8D: the ratio to parent turned out to be 0.803.

As to chain 5 L8A, the ratio to parent was determined as 1.08.

For chain 5 L8M, the ratio to parent amounted to 1.14.

On to chain 5 L8E, for which the ratio to parent was 0.892.

With chain 5 F5L, the ratio to parent stood at 1.36.

As for chain 5 F5T, the ratio to parent is 1.38.

For chain 5 F5D, the ratio to parent came to 0.945.

With chain 5 F5M, the ratio to parent is 1.32.

Turning to chain 5 F5V, the ratio to parent worked out at 1.27.

With chain 5 F5Q, the ratio to parent was 1.33.

In the case of chain 5 F5C, the ratio to parent came out at 1.26.

For chain 5 F5A, the ratio to parent was determined as 1.33.

On to chain 5 F5W, for which the ratio to parent was 1.22.

Consider chain 5 F5R, for which the ratio to parent was found to be 1.31.

Consider chain 5 F5H, for which the ratio to parent was found to be 1.29.

With chain 5 F5G, the ratio to parent was determined as 1.05.

For chain 5 F5K, the ratio to parent was determined as 1.09.

With chain 5 F5P, the ratio to parent came out at 0.552.

Consider chain 5 F5I, for which the ratio to parent was 1.14.

Take chain 5 N4I: the ratio to parent amounted to 0.41.

Consider chain 5 N4R, for which the ratio to parent was found to be 0.572.

Regarding chain 5 N4K, the ratio to parent came to 0.364.

chain 5 N4Y: the ratio to parent worked out at 0.0572.

On to chain 5 N4M, for which the ratio to parent was 0.00718.

For the variant chain 5 N4T, the ratio to parent amounted to 0.127.

Turning to chain 5 N4G, the ratio to parent came to 0.0077.

For the variant chain 5 N4L, the ratio to parent came out at 0.608.

As for chain 5 N4H, the ratio to parent came out at 0.294.

Consider chain 5 N4C, for which the ratio to parent worked out at 0.0443.

Consider chain 5 N4D, for which the ratio to parent turned out to be 0.832.

On to chain 5 N4W, for which the ratio to parent was 0.0561.

Source of the values: PMC11480844 (2024).
